Measurements published in patent US20180094075A1 (Pfizer, published 2018).

How the values were obtained:
[1] = target: human PTK7 expressed on cells (cancer cell lines with endogenous PTK7; HEK293T-PTK7 over-expressing cells) (human) (UniProt Q13308); experiment: flow cytometry, H446 cells, 10 µg/mL
[2] = target: human PTK7 expressed on cells (cancer cell lines with endogenous PTK7; HEK293T-PTK7 over-expressing cells) (human) (UniProt Q13308); experiment: flow cytometry, H661 cells, 10 µg/mL
[3] = target: human PTK7 expressed on cells (cancer cell lines with endogenous PTK7; HEK293T-PTK7 over-expressing cells) (human) (UniProt Q13308); experiment: flow cytometry, U2OS cells, 10 µg/mL
[4] = target: T1, human PTK7 expressed on cells (cancer cell lines with endogenous PTK7; HEK293T-PTK7 over-expressing cells) (human, UniProt Q13308 31-1070); experiment: cell-based or functional assay
T1 sequence: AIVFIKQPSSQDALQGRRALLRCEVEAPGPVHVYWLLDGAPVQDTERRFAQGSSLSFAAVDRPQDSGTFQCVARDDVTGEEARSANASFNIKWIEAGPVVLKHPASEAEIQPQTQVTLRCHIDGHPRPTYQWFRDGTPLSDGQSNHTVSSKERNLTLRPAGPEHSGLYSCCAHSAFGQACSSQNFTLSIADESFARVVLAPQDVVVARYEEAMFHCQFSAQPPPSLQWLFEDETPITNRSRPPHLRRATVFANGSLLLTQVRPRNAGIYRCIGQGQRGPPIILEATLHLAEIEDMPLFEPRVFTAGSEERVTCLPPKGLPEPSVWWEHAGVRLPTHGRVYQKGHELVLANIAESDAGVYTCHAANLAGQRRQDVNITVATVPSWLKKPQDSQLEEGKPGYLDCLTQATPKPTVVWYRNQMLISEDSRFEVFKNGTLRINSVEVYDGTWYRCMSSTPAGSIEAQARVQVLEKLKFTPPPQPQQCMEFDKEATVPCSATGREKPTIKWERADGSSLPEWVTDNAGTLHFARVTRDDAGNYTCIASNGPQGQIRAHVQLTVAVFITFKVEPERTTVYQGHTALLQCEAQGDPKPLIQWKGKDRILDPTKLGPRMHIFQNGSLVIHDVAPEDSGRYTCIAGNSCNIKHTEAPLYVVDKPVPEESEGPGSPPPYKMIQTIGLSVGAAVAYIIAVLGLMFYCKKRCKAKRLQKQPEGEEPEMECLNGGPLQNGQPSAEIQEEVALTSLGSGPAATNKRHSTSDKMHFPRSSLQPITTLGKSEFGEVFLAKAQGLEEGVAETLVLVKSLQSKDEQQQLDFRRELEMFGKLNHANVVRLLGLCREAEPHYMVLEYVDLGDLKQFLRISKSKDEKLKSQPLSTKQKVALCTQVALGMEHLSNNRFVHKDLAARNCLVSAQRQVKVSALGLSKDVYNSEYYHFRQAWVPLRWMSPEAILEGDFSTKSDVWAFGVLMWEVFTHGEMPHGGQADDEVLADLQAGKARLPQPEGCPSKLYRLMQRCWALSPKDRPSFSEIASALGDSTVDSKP

| Molecule | MFI [1] | MFI [2] | MFI [3] | IC50 of cell viability (MTS), antibody + saporin-conjugated anti-human Fab (Fab-ZAP), DMS114 cells [4] [µg/mL] | IC50 of cell viability (MTS), antibody + saporin-conjugated anti-human Fab (Fab-ZAP), H446 cells [4] [µg/mL] |
| --- | --- | --- | --- | --- | --- |
| Control mAb (Table 7) (antibody) | 11 | 4.2 | 5.3 |  |  |
| hu23 (humanized anti-PTK7 antibody) (antibody, V domains shown) VH: QITLKESGPTLVKPTQTLTLTCTFSGFSLSTSNMGVGWIRQPPGKALEWLAHIWWDDDKYYSPSLKSRLTITKDTSKNQVVLTMTNMDPVDTATYYCVRSNYGYAWFAYWGQGTLVTVSS VL: DIQMTQSPSSLSASVGDRVTITCKASQDIYPYLNWFQQKPGKAPKTLIYRTNRLLDGVPSRFSGSGSGTDFTFTISSLQPEDIATYYCLQYDEFPLTFGAGTKLEIKR |  |  |  | 0.0103 | 0.0447 |
